# Measurements from patent US20110129457A1 (CURIS, published 2011).
# T1: full length human Patched-1 on 293 cells (Ptch1-293 clone 10) (human, UniProt Q13635 1-1447)
# T1 construct: whole, on cells; also called Ptch1 expressing cells; Ptch1-293 cells
# T1 sequence (looked up): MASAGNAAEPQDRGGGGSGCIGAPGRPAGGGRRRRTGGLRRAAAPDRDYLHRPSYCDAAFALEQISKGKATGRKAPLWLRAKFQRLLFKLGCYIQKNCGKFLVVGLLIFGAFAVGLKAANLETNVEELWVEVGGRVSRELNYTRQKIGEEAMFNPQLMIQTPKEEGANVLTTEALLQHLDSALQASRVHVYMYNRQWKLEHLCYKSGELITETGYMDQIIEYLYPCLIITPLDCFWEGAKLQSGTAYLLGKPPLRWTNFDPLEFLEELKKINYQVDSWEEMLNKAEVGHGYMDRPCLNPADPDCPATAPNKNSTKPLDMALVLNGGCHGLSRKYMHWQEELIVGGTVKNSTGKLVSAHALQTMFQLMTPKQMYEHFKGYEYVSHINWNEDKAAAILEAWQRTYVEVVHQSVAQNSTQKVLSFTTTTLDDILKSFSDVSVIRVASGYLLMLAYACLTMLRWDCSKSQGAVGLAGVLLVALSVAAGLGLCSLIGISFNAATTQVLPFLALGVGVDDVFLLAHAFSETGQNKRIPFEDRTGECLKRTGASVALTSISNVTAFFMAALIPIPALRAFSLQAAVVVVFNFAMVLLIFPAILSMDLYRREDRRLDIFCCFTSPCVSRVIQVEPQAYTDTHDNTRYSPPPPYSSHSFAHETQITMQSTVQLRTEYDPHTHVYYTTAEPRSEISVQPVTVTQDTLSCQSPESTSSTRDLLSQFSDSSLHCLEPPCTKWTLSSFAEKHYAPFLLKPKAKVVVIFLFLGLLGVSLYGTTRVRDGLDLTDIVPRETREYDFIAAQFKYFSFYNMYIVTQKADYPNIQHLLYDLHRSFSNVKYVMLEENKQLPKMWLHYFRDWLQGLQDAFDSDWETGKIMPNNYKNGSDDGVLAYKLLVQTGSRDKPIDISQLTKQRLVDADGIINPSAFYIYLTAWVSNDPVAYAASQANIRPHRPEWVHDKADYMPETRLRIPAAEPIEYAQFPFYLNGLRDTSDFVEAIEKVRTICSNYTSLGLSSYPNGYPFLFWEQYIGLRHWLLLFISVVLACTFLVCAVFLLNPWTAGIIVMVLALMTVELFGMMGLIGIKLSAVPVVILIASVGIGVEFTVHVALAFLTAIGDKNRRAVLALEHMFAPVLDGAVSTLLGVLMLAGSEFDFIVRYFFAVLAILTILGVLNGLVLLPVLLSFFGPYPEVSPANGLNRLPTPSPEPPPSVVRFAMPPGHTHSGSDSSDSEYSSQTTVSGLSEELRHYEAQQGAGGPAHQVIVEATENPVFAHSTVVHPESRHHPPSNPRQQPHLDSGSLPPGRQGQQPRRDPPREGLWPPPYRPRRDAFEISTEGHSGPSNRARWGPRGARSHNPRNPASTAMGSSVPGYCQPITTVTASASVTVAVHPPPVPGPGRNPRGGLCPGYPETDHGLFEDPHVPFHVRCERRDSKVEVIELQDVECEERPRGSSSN
# B1: Hhip1β12 (β-propeller-EGF1-EGF2, residues 193-667), C-terminal His6-tag (receptor)
# chain: SNYLDQMEEYDKVEEISRKHKHNCFCIQEVVSGLRQPVGALHSGDGSQRLFILEKEGYVKILTPEGEIFKEPYLDIHKLVQSGIKGGDERGLLSLAFHPNYKKNGKLYVSYTTNQERWAIGPHDHILRVVEYTVSRKNPHQVDLRTARVFLEVAELHRKHLGGQLLFGPDGFLYIILGDGMITLDDMEEMDGLSDFTGSVLRLDVDTDMCNVPYSIPRSNPHFNSTNQPPEVFAHGLHDPGRCAVDRHPTDININLTILCSDSNGKNRSSARILQIIKGKDYESEPSLLEFKPFSNGPLVGGFVYRGCQSERLYGSYVFGDRNGNFLTLQQSPVTKQWQEKPLCLGTSGSCRGYFSGHILGFGEDELGEVYILSSSKSMTQTHNGKLYKIVDPKRPLMPEECRATVQPAQTLTSECSRLCRNGYCTPTGKCCCSPGWEGDFCRTAKCEPACRHGGVCVRPNKCLCKKGYLGPQCEHHHHHH
# B2: Hhip1β12 D383A (receptor)
# chain: SNYLDQMEEYDKVEEISRKHKHNCFCIQEVVSGLRQPVGALHSGDGSQRLFILEKEGYVKILTPEGEIFKEPYLDIHKLVQSGIKGGDERGLLSLAFHPNYKKNGKLYVSYTTNQERWAIGPHDHILRVVEYTVSRKNPHQVDLRTARVFLEVAELHRKHLGGQLLFGPDGFLYIILGDGMITLDDMEEMAGLSDFTGSVLRLDVDTDMCNVPYSIPRSNPHFNSTNQPPEVFAHGLHDPGRCAVDRHPTDININLTILCSDSNGKNRSSARILQIIKGKDYESEPSLLEFKPFSNGPLVGGFVYRGCQSERLYGSYVFGDRNGNFLTLQQSPVTKQWQEKPLCLGTSGSCRGYFSGHILGFGEDELGEVYILSSSKSMTQTHNGKLYKIVDPKRPLMPEECRATVQPAQTLTSECSRLCRNGYCTPTGKCCCSPGWEGDFCRTAKCEPACRHGGVCVRPNKCLCKKGYLGPQCEHHHHHH
# B3: Hhip1β12 D383R (receptor)
# chain: SNYLDQMEEYDKVEEISRKHKHNCFCIQEVVSGLRQPVGALHSGDGSQRLFILEKEGYVKILTPEGEIFKEPYLDIHKLVQSGIKGGDERGLLSLAFHPNYKKNGKLYVSYTTNQERWAIGPHDHILRVVEYTVSRKNPHQVDLRTARVFLEVAELHRKHLGGQLLFGPDGFLYIILGDGMITLDDMEEMRGLSDFTGSVLRLDVDTDMCNVPYSIPRSNPHFNSTNQPPEVFAHGLHDPGRCAVDRHPTDININLTILCSDSNGKNRSSARILQIIKGKDYESEPSLLEFKPFSNGPLVGGFVYRGCQSERLYGSYVFGDRNGNFLTLQQSPVTKQWQEKPLCLGTSGSCRGYFSGHILGFGEDELGEVYILSSSKSMTQTHNGKLYKIVDPKRPLMPEECRATVQPAQTLTSECSRLCRNGYCTPTGKCCCSPGWEGDFCRTAKCEPACRHGGVCVRPNKCLCKKGYLGPQCEHHHHHH
# B4: Hhip1β1 (β-propeller-EGF1, residues 193-637), C-terminal His6-tag (receptor)
# chain: SNYLDQMEEYDKVEEISRKHKHNCFCIQEVVSGLRQPVGALHSGDGSQRLFILEKEGYVKILTPEGEIFKEPYLDIHKLVQSGIKGGDERGLLSLAFHPNYKKNGKLYVSYTTNQERWAIGPHDHILRVVEYTVSRKNPHQVDLRTARVFLEVAELHRKHLGGQLLFGPDGFLYIILGDGMITLDDMEEMDGLSDFTGSVLRLDVDTDMCNVPYSIPRSNPHFNSTNQPPEVFAHGLHDPGRCAVDRHPTDININLTILCSDSNGKNRSSARILQIIKGKDYESEPSLLEFKPFSNGPLVGGFVYRGCQSERLYGSYVFGDRNGNFLTLQQSPVTKQWQEKPLCLGTSGSCRGYFSGHILGFGEDELGEVYILSSSKSMTQTHNGKLYKIVDPKRPLMPEECRATVQPAQTLTSECSRLCRNGYCTPTGKCCCSPGWEGDFCRTAHHHHHH
# B5: Human Dhh (residues 24-198), N-terminal His6-tag (ligand)
# chain: not shown
# notes: range 24-198; also called Desert Hedgehog
# B6: Human Ihh (residues 29-202), N-terminal His6-tag (ligand)
# chain: not shown
# notes: range 29-202; also called His6-Ihh; Indian Hedgehog
# B7: Hip-L2 peptide (GDGMITLDDMEEMDGLSDFTG) of the competition ELISA (peptide)
# peptide: GDGMITLDDMEEMDGLSDFTG
# notes: also called Hhip1-L2 peptide; peptide derived from the Hhip1β12 L2 loop
# B8: octyl-Ihh (octylated Ihh wildtype) (ligand)
# chain: not shown
# modifications: octylated (site not stated)
# B9: Ihh T154I (type A1 brachydactyly mutant) (ligand)
# chain: not shown
# B10: octyl-T154I (octylated Ihh T154I) (ligand)
# chain: not shown
# modifications: octylated (site not stated)
# Tests used:
# [1] = biological target: fully lipid-modified Shh secreted by human HT29 cells (human, UniProt Q15465 24-197, N-terminal palmitoyl and C-terminal cholesterol modifications); test: cell-based or functional assay
# [2] = biological target: B1; test: competition ELISA: unlabeled Hh against 5 nM biotinylated-ShhN-Cys for immobilized Hhip1β12
# [3] = biological target: B1; test: competition ELISA: unlabeled Ihh against 5 nM biotinylated ShhN-Cys for immobilized Hhip1β12
# [4] = biological target: T1, full length human Patched-1 on 293 …; test: FACS competition: 1 nM Shh649 with inhibitor on Ptch1 expressing cells
# [5] = biological target: B1; test: competition ELISA as in paragraph 570; the legend gives Ihh and Shh the other way round
# [6] = biological target: T1, full length human Patched-1 on 293 …; test: FACS competition: unlabeled Ihh against 1 nM Shh649 for Ptch1-expressing 293 cells
# [7] = biological target: T2, Shh-Flag (human Shh residues 25-197 with C-terminal Flag-Tag) (human, UniProt Q15465 25-197); test: competition ELISA: Hip-L2 peptide dilution with 800 nM Hhip protein on Shh-Flag captured by anti-Flag M2, anti-His-HRP detection
# T2 construct: range 25-197; not shown: C-terminal Flag-Tag
binder,measurement,setting,value
B1,"IC50, inhibition of Gli-luciferase activity in HT29/S12 co-culture",[1],5 nM
B2,"IC50, Gli-luciferase co-culture assay",[1],~10 nM
same,"fold of IC50 against wildtype Hipβ12, Gli-luciferase co-culture assay",[1],2 fold
B3,"IC50, Gli-luciferase co-culture assay",[1],57 nM
same,"fold change of IC50, Gli-luciferase co-culture assay",[1],~13 fold
B4,"IC50, inhibition of Gli-luciferase activity in HT29/S12 co-culture",[1],20.3 nM
same,"fold of IC50 against Hhip1ECD, Gli-luciferase co-culture",[1],~4 fold
B5,IC50,[2],40 nM
B6,IC50 (read off the curve),[3],~90 nM
same,IC50,[4],1.1 nM
same,IC50,[5],53 nM
same,IC50 (read off the curve),[6],~3 nM
same,IC50,[2],87 nM
B7,IC50,[7],150000 nM
B8,IC50,[4],0.64 nM
B9,IC50,[4],140 nM
B10,IC50,[4],10 nM
